Values of other authors as cited in publication PMC4567469.

Molecular target: Ran (Homo sapiens) (UniProt P62826)

Substance: Leader protein (LE) (from UniProt P03304)
- Kd: 3 nM
